This experiment concerns the target biotinylated soluble IA^b-p3K (mouse). As to the kind of experiment: SPR. Background: In SPR one partner is held on a chip, and binding of the other changes the refractive index at the surface.

pKd: −log10 of the molar value.

As a reminder, the pKd is the Kd on a negative log10 scale, so that one unit is a factor of ten. High values mean a small Kd, low ones a large Kd. The substance soluble YAe62 TCR showed a negative logarithm of the Kd (pKd) of 5.05.

Source of the values: paper PMC3160269.
